In PMC10397247:

Columns and labels:
4H619-bH = target: T1, 4H619-bH; test: two-hybrid library CCNG1;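 also: natural log of median RNA to DNA barcode read ratio; higher means stronger binding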
T1 chain: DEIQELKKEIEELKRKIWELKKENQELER

4H850-bH = target: T2, 4H850-bH; test: two-hybrid library CCNG1;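 also: natural log of median RNA to DNA barcode read ratio; higher means stronger binding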
T2 chain: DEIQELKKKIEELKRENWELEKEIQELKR

4H906-bH = target: T3, 4H906-bH; test: two-hybrid library CCNG1;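 also: natural log of median RNA to DNA barcode read ratio; higher means stronger binding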
T3 chain: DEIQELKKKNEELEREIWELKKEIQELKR

P8mS = target: T4, P8mS; test: two-hybrid library CC1;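 also: natural log of median RNA to DNA barcode read ratio; higher means stronger binding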
T4 chain: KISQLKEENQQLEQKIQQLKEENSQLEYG

P9 = target: T5, P9; test: two-hybrid library CC1; conditions: mean of both orientations;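 also: natural log of median RNA to DNA barcode read ratio; higher means stronger binding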
T5 chain: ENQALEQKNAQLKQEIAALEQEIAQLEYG

APC4436-AA = target: T6, APC4436-AA; test: two-hybrid library CCmax;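 also: natural log of median RNA to DNA barcode read ratio; higher means stronger binding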
T6 chain: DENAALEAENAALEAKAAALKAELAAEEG

APC5383-AA = target: T7, APC5383-AA; test: two-hybrid library CCmax; conditions: mean of both orientations
T7 chain: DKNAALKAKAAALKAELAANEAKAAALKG

APC6108-AA = target: T8, APC6108-AA; test: two-hybrid library CCmax; conditions: mean of both orientations
T8 chain: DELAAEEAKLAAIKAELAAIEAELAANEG

APC7099-AA = target: T9, APC7099-AA; test: two-hybrid library CCmax; conditions: mean of both orientations
T9 chain: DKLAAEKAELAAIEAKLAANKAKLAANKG

APC8191-AA = target: T10, APC8191-AA; test: two-hybrid library CCmax; conditions: mean of both orientations
T10 chain: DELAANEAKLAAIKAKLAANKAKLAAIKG

APC8910-AA = target: T11, APC8910-AA; test: two-hybrid library CCmax; conditions: mean of both orientations
T11 chain: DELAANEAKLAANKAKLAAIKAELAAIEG

APC9096-AA = target: T12, APC9096-AA; test: two-hybrid library CCmax; conditions: mean of both orientations
T12 chain: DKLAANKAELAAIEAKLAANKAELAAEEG

APC9319-AA = target: T13, APC9319-AA; test: two-hybrid library CCmax; conditions: mean of both orientations
T13 chain: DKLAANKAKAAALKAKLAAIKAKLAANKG

4H477-bH = target: T14, 4H477-bH; test: two-hybrid library CCNG1
T14 chain: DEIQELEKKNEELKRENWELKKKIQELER

4H492-bH = target: T15, 4H492-bH; test: two-hybrid library CCNG1
T15 chain: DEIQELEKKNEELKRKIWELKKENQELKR

4H741-bH = target: T16, 4H741-bH; test: two-hybrid library CCNG1
T16 chain: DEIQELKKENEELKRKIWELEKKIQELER

B1: 4H619-bH (peptide)
chain: DEIQELKKEIEELKRKIWELKKENQELER
- interaction score (4H619-bH): 0.749
- interaction score (4H850-bH): 0.196
- interaction score (4H906-bH): -0.349

B2: P8mS (peptide)
chain: KISQLKEENQQLEQKIQQLKEENSQLEYG
- interaction score (P8mS): -3.02
- interaction score (P9): -2.35

B3: APC4436-AA (peptide)
chain: DENAALEAENAALEAKAAALKAELAAEEG
- interaction score (APC4436-AA): -2.09
- interaction score (APC5383-AA): -1.76
- interaction score (APC6108-AA): -2.03
- interaction score (APC7099-AA): -1.57
- interaction score (APC8191-AA): -2.27
- interaction score (APC8910-AA): -1.76
- interaction score (APC9096-AA): -1.96
- interaction score (APC9319-AA): -1.7

B4: 4H477-bH (peptide)
chain: DEIQELEKKNEELKRENWELKKKIQELER
- interaction score (4H477-bH): 0.526
- interaction score (4H492-bH): -1.31
- interaction score (4H741-bH): -0.234
